Test results published in article PMC7563181.

Tests used:
[1] = molecular target: membrane-bound GFP (pHR_EGFPligand)
[2] = molecular target: membrane-bound GFP (pHR_EGFPligand); remark: listed apart in the source
[3] = molecular target: membrane-bound GFP (pHR_EGFPligand); remark: listed apart in the source
[4] = molecular target: membrane-bound GFP (pHR_EGFPligand); remark: listed apart in the source
[5] = molecular target: membrane-bound GFP (pHR_EGFPligand); remark: listed apart in the source
[6] = molecular target: membrane-bound GFP (pHR_EGFPligand); remark: listed apart in the source
[7] = molecular target: membrane-bound GFP (pHR_EGFPligand); remark: listed apart in the source

% Activation in Bulk Population (dsRed-Express, 60 min, sender:receiver 1:1) [1]: 31.3%
% Activation in Clonal Cell Lines (dsRed-Express, 60 min, sender:receiver 1:1) [1]: 73.5%
Overall efficiency of indel formation at the CXCR4 locus (TIDE) after activation of receiver cells by GFP sender cells (1:1, 60 min), Experiment 1 [2]: 34.5%
Overall efficiency of indel formation at the CXCR4 locus (TIDE) after activation of receiver cells by GFP sender cells (1:1, 60 min), Experiment 2 [2]: 41.3%
Overall efficiency of indel formation at the CXCR4 locus (TIDE) after activation of receiver cells by GFP sender cells (1:1, 60 min), Experiment 3 [2]: 45.4%
synNotch-mediated fluorophore expression, bulk population before clonal expansion (differs from Table 2) [3]: 34.8%
synNotch-mediated fluorophore expression, clonal cell line (differs from Table 2) [3]: 73.6%
% dsRed-Express-positive receiver cells after co-culture with antigen-expressing sender cells at three sender-receiver ratios (5:1, 1:1, 1:5), flow cytometry after 48 h; 7.6% to 40.1% [4]: 40.1%
% dsRed-Express-positive receiver cells after 10, 30, 60, 120 and 180 min of contact with antigen-expressing sender cells (ratio 1:1), flow cytometry 48 h later; 7.3% to 37.3% [5]: 37.3%
% dsRed-Express-positive cells at the first sort of the transduced bulk receiver population after activation with antigen-expressing cells (flow cytometry) [6]: 10.3%
Indel formation frequency at the CXCR4 locus (TIDE) after activation by GFP sender cells, receiver cells kept in low FBS (G1 arrest) [7]: 37.4%
Indel formation frequency at the CXCR4 locus (TIDE) after activation by GFP sender cells, receiver cells kept without FBS (G1 arrest) [7]: 31.4%
Indel formation frequency at the CXCR4 locus (TIDE) after activation by GFP sender cells, receiver cells treated with nocodazole (G2/M arrest) [7]: 34.4%
Substance: LaG17_synNotch_TetRVP64 (synNotch receptor against GFP with a tTA intracellular domain)
